These results are taken from patent US10441636B2, “Method of diagnosis and treatment” (LA TROBE UNIVERSITY, priority 2012, dated 2019).

“Also recorded” adds a separate entry of the source.

For test [1], the system named is 4T1.2 tumours. The test is described as follows: Early treatment setting after primary tumour resection: poly I:C, doxorubicin or combination (bioluminescence imaging). Type of test: in vivo, Balb/c mice. The following applies: treatment from 2 days after resection for 2 weeks; 25 ug poly I:C every 2 days, 4 mg/kg doxorubicin every 4 days; bioluminescence (FIG. 21). How it is done: 4T1.2 cells were inoculated into the 4th mammary gland of Balb/c mice. Primary tumours were resected when they reached 0.2 g and 2 days later treatment was started for a period of 2 weeks. Mice were treated with vehicle alone, 25 ug poly I:C every 2 days, 4 mg/kg doxorubicin every 4 days, or the combination of poly I:C and doxorubicin. Metastatic burden was visualised in all mice at a set time point using bioluminescence imaging.

Test [2] deals with 4T1.2 tumours. The test is described as follows: 4T1.2 tumour bearing mice treated with poly I:C (bioluminescence imaging, Q-PCR of tumour burden). Type of test: in vivo. How it is done:
Mice bearing 4T1.2 cells were treated with 25 ug poly I:C 3× weekly by tail vein injection beginning at day 3. (a) Bioluminescence imaging of 4T1.2 primary tumour burden prior to surgical resection (b) Bioluminescence imaging of metastatic burden in mice treated with vehicle or poly I:C (c) Q-PCR detection of 4T1.2 tumour burden in femur, spine and lung of mice at day 33.
These techniques have previously been described by Eckhardt and colleagues (Eckhardt 2005). Briefly, mice were inoculated with 10^5 cells into the 4th mammary fatpad of female 6-8 week old Balb/c mice. Tumour volumes were monitored by caliper measurement 3 times weekly. […] Metastatic burden in secondary tissues was detected by a Q-PCR based assay using a reporter sequence inserted into the genome of the 4T1.2 cells. Survival assays were conducted in the same way except at day 22 the mice were anaesthetized using either a combination of ketamine hydrochloride (1.2 m/g of mouse)/xylaxil hydrochloride (3 μg/g of mouse) or 2.5% aerosol isoflurane in 100% oxygen and the primary tumour was surgically removed and weighed. […] At time of sacrifice, all mice had evidence of bone and lung metastasis unless otherwise stated. Anti-CD8 (clone 53-6.7, produced in house) and the control antibody rat IgG2a (clone 2A3, produced in house) were injected intraperitoneally at 50 μg per dose on days −1, 0, 1, 4, 7 and subsequently every 7 d. Rabbit anti-asialo GM1 was purchased from Wako chemicals and injected intraperitoneally according to the manufacturer's instructions.

In test [3] the test system is 4T1.2 cells. The test is described as follows: Real-time RT-PCR of 4T1.2 cells treated with recombinant IFN-α1. It is filed as cell-based, mouse. The following applies: 4T1.2 cells in vitro, recombinant IFN-α1 1000 IU/mL, real-time RT-PCR (FIG. 6a). An excerpt: (§1) FIG. 6: The effect of type I IFN treatment on metastasis. (a) Real-time RT-PCR analysis of 4T1.2 cells treated with […] recombinant IFN-α1. (n=3, * p<0.05, error bars are S.E.M.). (b) Proliferation of 4T1.2 cells treated with 1000 IU/mL of recombinant […]. (n=6, error bars are S.E.M.). (c) Primary tumour volume, n=15. (d) Q-PCR detection of metastatic 4T1.2 tumour burden in spine (at day 33 post tumour cell inoculation) of mice treated with IFNα1 or vehicle. (e) H&E stained sections of spines and femurs from 4T1.2 bearing mice treated with IFN-α1 or vehicle (Scale bar=50 T=Tumour). (f) Kaplan-Meier disease-free survival analysis of mice bearing 4T1.2 tumours that were subsequently resected. Mice were treated with 10^5 IU of recombinant IFN-α1 or saline from day 3. (n=15).
66cl4 and 4T1 cell lines were kindly provided by Dr. Fred Miller (Karmanos Cancer Institute, Detroit, Mich.). Derivation of the 4T1.2 line has previously been described (Eckhardt et al. 2005, supra; Lelekakis et al. 1999, supra). Recombinant Interferon-α1 was used at a dose of 1000 IU/mL. Interferon-α receptor blocking antibody (MAR1-5A3) was used at a concentration of 10 μg/mL (Leinco, St Louis, Mo.). G-CSF ELISA was performed according to manufacturer's instructions (R&D Systems, Minneapolis, Minn., USA). Flow cytometry was performed using standard techniques. MDSCs were assessed using Ly6G (clone IA8) and CD11b (clone M1/70) specific antibodies (BD Pharmingen, Franklin Lakes, N.J., USA) at a dilution of 1:200. Flow Cytometry was performed using an LSR-II (BD Pharmingen, San Jose, Calif.). Real-time RT-PCR was performed using standard techniques. In vitro proliferation was assessed using a sulforhodamine B binding assay as previously described (Eckhardt et al. 2005, supra). […]
Expression level of each gene was calculated based on the cycle threshold (CT), set within the linear range of DNA amplification. Expression level (arbitrary units) was calculated as relative transcript abundance (RTA) by: RTA=10000/(2^ΔCT), where ΔCT=CT (gene of interest)−CT(GAPDH).
(In general: In qPCR the cycle at which signal appears reflects the starting amount.)

Test [4] relates to 4T1.2 tumours. Description: Metastasis-free survival assay with primary tumour resection, IFN-α1 treatment. It is filed as in vivo, Balb/c mice.
From the text: as §1
Female Balb/c mice (6-8 weeks old) were obtained from ARC (Perth, WA, Australia) or Walter and Eliza Hall Institute (Kew, Vic, Australia) breeding facilities. […] Metastasis was assessed using a previously described assay (Eckhardt et al. 2005, supra). […]
These techniques have previously been described by Eckhardt and colleagues (Eckhardt 2005). […] Tumour volumes were monitored by caliper measurement 3 times weekly. […] Metastatic burden in secondary tissues was detected by a Q-PCR based assay using a reporter sequence inserted into the genome of the 4T1.2 cells. […]

Test [5] concerns 4T1.2 tumour bearing mice. The test is described as follows: Immune cell populations (flow cytometry) and G-CSF (ELISA) in 4T1.2 tumour bearing mice treated with IFN-α1. It is filed as in vivo, Balb/c mice. As to the method:
FIG. 18: Measurement of MDSC and G-CSF in blood of 4T1.2 tumour bearing mice treated with IFNα1. Mice were treated with IFN-al or saline control one day after 4T1.2 tumour cell inoculation into the mammary gland. Five days after tumour inoculation, MDSC percentage (a) and absolute numbers (b) were measured, along with G-CSF levels by ELISA (c).
FIG. 19: Changes in immune cells in the mammary gland, lung and bone. a) Mice were treated with IFN-α1 or saline control on day 1, 3 and 5 after 4T1.2 tumour cell inoculation into the mammary gland. Ten days after tumour inoculation MDSC, NK, CD4^+ and CD8^+ T cell percentages were measured in fatpad/primary tumour, lung and bone marrow. N=5. Difference between treatment groups was assessed using an unpaired T test and significance is indicated. b) Cells isolated from the mammary gland, lung and bone marrow of naïve Balb/c mice were stained for DX5, TCR, CD11b and CD27. Shown are representative profiles for CD11b and CD27 expression on gated DX5^+TCR. Percentage of CD11b^low/high and/or CD27^low/high are indicated.
66cl4 and 4T1 cell lines were kindly provided by Dr. Fred Miller (Karmanos Cancer Institute, Detroit, Mich.). Derivation of the 4T1.2 line has previously been described (Eckhardt et al. 2005, supra; Lelekakis et al. 1999, supra). Recombinant Interferon-α1 was used at a dose of 1000 IU/mL. Interferon-α receptor blocking antibody (MAR1-5A3) was used at a concentration of 10 μg/mL (Leinco, St Louis, Mo.). G-CSF ELISA was performed according to manufacturer's instructions (R&D Systems, Minneapolis, Minn., USA). Flow cytometry was performed using standard techniques. MDSCs were assessed using Ly6G (clone IA8) and CD11b (clone M1/70) specific antibodies (BD Pharmingen, Franklin Lakes, N.J., USA) at a dilution of 1:200. Flow Cytometry was performed using an LSR-II (BD Pharmingen, San Jose, Calif.). Real-time RT-PCR was performed using standard techniques. In vitro proliferation was assessed using a sulforhodamine B binding assay as previously described (Eckhardt et al. 2005, supra). Immunohistochemistry was performed using standard techniques, using α-mouse Irf7 (Zymed/Invitrogen, Carlsbad, Calif., USA) α-human Irf7 (BD Pharmingen, Franklin Lakes, N.J., USA) at a concentration of 5 μg/mL.
On the technique in general: In flow cytometry, cells or beads pass a laser one at a time.

Test [6] deals with 4T1.2 cells. Description: In vitro proliferation of 4T1.2 cells (sulforhodamine B binding assay). Type of test: cell-based, mouse. The note with it: 1000 IU/mL recombinant IFN-α1 (FIG. 6b).
From the text: as §1
66cl4 and 4T1 cell lines were kindly provided by Dr. Fred Miller (Karmanos Cancer Institute, Detroit, Mich.). Derivation of the 4T1.2 line has previously been described (Eckhardt et al. 2005, supra; Lelekakis et al. 1999, supra). Recombinant Interferon-α1 was used at a dose of 1000 IU/mL. […] MDSCs were assessed using Ly6G (clone IA8) and CD11b (clone M1/70) specific antibodies (BD Pharmingen, Franklin Lakes, N.J., USA) at a dilution of 1:200. […] In vitro proliferation was assessed using a sulforhodamine B binding assay as previously described (Eckhardt et al. 2005, supra). […]
On the technique in general: The SRB assay estimates cell density from bound dye.

Test [7] deals with 4T1.2 tumours. Description: Mouse metastasis assay, 4T1.2 mammary tumours, IFN-α1 treatment. Type of test: in vivo, Balb/c mice.
From the text: as §1
Female Balb/c mice (6-8 weeks old) were obtained from ARC (Perth, WA, Australia) or Walter and Eliza Hall Institute (Kew, Vic, Australia) breeding facilities. Female NSG mice were obtained from WEHI breeding facility under license from The Jackson Laboratory and Balb/c Ifnar1^−/− (Hwang et al. 1995, supra) were bred in-house. Recombinant IFN-α1 was injected intraperitoneally 3 times weekly at a dose of 10^5 IU/dose. All other mouse assays were performed using standard techniques. Metastasis was assessed using a previously described assay (Eckhardt et al. 2005, supra). Mouse investigations were performed with the approval of the Peter MacCallum Animal Ethics Experimentation Committee.
These techniques have previously been described by Eckhardt and colleagues (Eckhardt 2005). Briefly, mice were inoculated with 10^5 cells into the 4th mammary fatpad of female 6-8 week old Balb/c mice. Tumour volumes were monitored by caliper measurement 3 times weekly. […] Metastatic burden in secondary tissues was detected by a Q-PCR based assay using a reporter sequence inserted into the genome of the 4T1.2 cells. […]

Where [8] appears, read: IFN-α1 on day 1, 3 and 5, measured ten days after tumour inoculation (FIG. 19a).

With `COc1cccc2c1C(=O)c1c(O)c3c(c(O)c1C2=O)C[C@@](O)(C(=O)CO)C[C@@H]3O[C@H]1C[C@H](N)[C@H](O)[C@H](C)O1` [doxorubicin], in test [1], the “metastasis at end point” value is reported as “did not significantly impact metastasis”.
For the molecule poly I:C, the primary tumour growth entry in test [2] (25 ug poly I:C 3x weekly by tail vein injection from day 3, bioluminescence imaging (FIG. 20a)) is recorded as “did not alter”. Further, the “metastatic burden in lung and bone” value in test [2] (25 ug poly I:C 3x weekly, PCR detection of tumour cell markers at day 33 (FIG. 20c)) is “significant decrease”. Further, the “metastasis to multiple organs” value in test [2] (25 ug poly I:C 3x weekly, bioluminescence after primary tumour resection (FIG. 20b)) is listed as “suppressed metastasis to multiple organs; also recorded: suppresses metastasis”. The “metastasis at end point” value in test [1] was “did not significantly impact metastasis”.

B1: IFN-α1: Recombinant Interferon-α1, a type I IFN, injected intraperitoneally 3 times weekly at 10^5 IU/dose (protein, UniProt P01562 24-189, looked up)
Interferon alpha-1/13: CDLPETHSLDNRRTLMLLAQMSRISPSSCLMDRHDFGFPQEEFDGNQFQKAPAISVLHELIQQIFNLFTTKDSSAAWDEDLLDKFCTELYQQLNDLEACVMQEERVGETPLMNADSILAVKKYFRRITLYLTEKKYSPCAWEVVRAEIMRSLSLSTNLQERLRRKE
As for B1, in test [3], the “expression of Irf7” value is “increased expression”, the “expression of Irf9” value was “increased expression” and the “expression of STAT1” value is given as “increased expression”. The metastasis-free survival entry in test [4] (10^5 IU recombinant IFN-α1 or saline for five weeks, primary tumour resection at 3 weeks (FIG. 6f)) is “significant extension”. Further, the “growth of primary tumours” value in test [4] (survival study, treatment for five weeks, primary tumour resection at 3 weeks) was “no effect”. In addition, the “G-CSF levels in the peripheral blood” value in test [5] (4T1.2 tumour bearing mice, IFN-α1 vs saline, ELISA (FIG. 18c)) is reported as “decreased”. The “MDSC accumulation in the peripheral blood” value in test [5] (4T1.2 tumour bearing mice, IFN-α1 vs saline, five days after tumour inoculation (FIG. 18), listed as IFN) is given as “significantly decreased”. In addition, in test [5] (setting [8]), the “CD11b+Ly6G+ MDSC in the bone marrow” value was “significantly decreased”, the “NK cells at the primary site or in lungs” value is “not observed” and the “NK cells in the bone marrow” value is given as “significantly increased”. In test [6], the “4T1.2 cell proliferation in vitro” value is “did not affect”. In addition, the “metastasis to the spine and femur” value in test [7] (10^5 IU/dose i.p. 3 times weekly, Q-PCR at day 33 and H&E, vs vehicle, P<0.007 (FIG. 6d, e)) was “significantly reduced metastasis to the spine and femur to undetectable levels”. In test [7] (10^5 IU/dose i.p. 3 times weekly, Q-PCR, endpoint day 33 (FIG. 17)), the “extent of metastasis to lung” value is reported as “not reduced”. Besides, the “primary tumour growth in vivo” value in test [7] (10^5 IU/dose intraperitoneally 3 times weekly (FIG. 6c)) is given as “did not affect”.
